B1: CpoB^TPR (CpoB^139-263), C-terminal TetratricoPeptide Repeat domain of CpoB (domain or fragment, E. coli, UniProt P45955 139-263, looked up)
chain: SGNANTDYNAAIALVQDKSRQDDAMVAFQNFIKNYPDSTYLPNANYWLGQLNYNKGKKDDAAYYFASVVKNYPKSPKAADAMFKVGVIMQDKGDTAKAKAVYQQVISKYPGTDGAKQAQKRLNAM
notes: CpoB, E. coli, residues 139-263 (TPR domain), in pET28a with a thrombin cleavage site; In the PRE NMR one of the partners was 15N-labelled, the other spin labelled at random on lysines with OXYL-1-NHS; also called C-terminal TPR domain; source: E. coli BL21(DE3), purified (HisTrap, Superdex 200)

Columns and labels:
Conditions in all cases: both partners purified
[1] = molecular target: T1, PBP1B (wild type, PBP1B^46-844) (E. coli, UniProt P02919 46-844); experiment: SPR; PBP1B versions immobilised to the chip surface; CpoB versions injected from either 3.9 nM to 2 μM or from 78 nM to 40 μM; apparent KD by non-linear regression, at least three independent experiments
T1 construct: PBP1B, E. coli, residues 46-844, encoded on pDML924; Immobilised on the SPR chip as in Egan et al. 2014 / Gray et al. 2015; also called WT PBP1B; WT; source: E. coli BL21(DE3), purified (membrane extract, HisTrap, thrombin, HiTrap SP ion exchange)
T1 sequence (looked up): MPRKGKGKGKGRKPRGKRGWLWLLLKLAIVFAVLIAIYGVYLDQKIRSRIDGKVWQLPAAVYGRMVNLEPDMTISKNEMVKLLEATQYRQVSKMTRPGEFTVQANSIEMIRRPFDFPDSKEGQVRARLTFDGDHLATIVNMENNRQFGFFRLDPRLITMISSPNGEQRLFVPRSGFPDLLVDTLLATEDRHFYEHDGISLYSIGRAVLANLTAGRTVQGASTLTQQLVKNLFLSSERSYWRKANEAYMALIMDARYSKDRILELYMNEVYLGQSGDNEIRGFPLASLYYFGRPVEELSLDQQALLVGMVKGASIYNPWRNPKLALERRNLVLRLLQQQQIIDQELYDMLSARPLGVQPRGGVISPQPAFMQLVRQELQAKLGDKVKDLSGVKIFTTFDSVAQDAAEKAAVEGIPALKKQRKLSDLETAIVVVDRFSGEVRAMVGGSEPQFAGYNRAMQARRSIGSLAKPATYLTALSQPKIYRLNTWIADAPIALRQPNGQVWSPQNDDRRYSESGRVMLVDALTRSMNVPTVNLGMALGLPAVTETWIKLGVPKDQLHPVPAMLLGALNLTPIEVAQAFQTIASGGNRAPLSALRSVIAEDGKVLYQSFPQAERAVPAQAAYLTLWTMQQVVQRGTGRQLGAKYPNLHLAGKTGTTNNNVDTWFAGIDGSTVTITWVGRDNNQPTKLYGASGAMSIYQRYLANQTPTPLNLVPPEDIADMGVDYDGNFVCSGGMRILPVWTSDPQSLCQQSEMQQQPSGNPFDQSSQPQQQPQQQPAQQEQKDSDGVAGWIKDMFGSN

[2] = molecular target: T1, PBP1B (wild type, PBP1B^46-844); experiment: as above; remark: listed apart in the source
[3] = molecular target: B1; experiment: paramagnetic relaxation enhancement (PRE) NMR; 100 µM 15N-labelled protein with the partner spin labelled at random on lysines, molar ratio 1:2, 2D HN-HSQC at 850 MHz, 20°C; intensity ratio before and after reduction with sodium ascorbate; done in both directions (15N-CpoB with spin labelled UB2H, 15N-UB2H with spin labelled CpoB)

Binder: B1
- Kd [1]: 4.9 µM

B2: CpoB^TPR+link (CpoB^110-263) (domain or fragment, E. coli, UniProt P45955 110-263, looked up)
chain: STSGDQSGAAASTTPTADAGTANAGAPVKSGNANTDYNAAIALVQDKSRQDDAMVAFQNFIKNYPDSTYLPNANYWLGQLNYNKGKKDDAAYYFASVVKNYPKSPKAADAMFKVGVIMQDKGDTAKAKAVYQQVISKYPGTDGAKQAQKRLNAM
notes: CpoB, E. coli, residues 110-263 (inter-domain linker and TPR domain), in pET28a with a thrombin cleavage site; also called CpoB^TPR version with this linker (res. 110–263); source: E. coli BL21(DE3), purified (HisTrap, Superdex 200)
- binding result [2]: binds

B3: UB2H domain of PBP1B (PBP1B^108–200) (domain or fragment, E. coli, UniProt P02919 108-200, looked up)
chain: GRMVNLEPDMTISKNEMVKLLEATQYRQVSKMTRPGEFTVQANSIEMIRRPFDFPDSKEGQVRARLTFDGDHLATIVNMENNRQFGFFRLDPR
notes: PBP1B, E. coli, residues 108 to 200 (UB2H domain), in pET28a with a thrombin cleavage site; [13C,15N]- or 15N-labelled for NMR; in the reciprocal PRE experiment spin labelled at random on lysines with OXYL-1-NHS; source: E. coli BL21(DE3), isotopically labelled in M9 medium, purified (HisTrap, Superdex 200)
- binding result [3]: binds
